Data published in paper PMC2886027.

Molecular target: T1, DraTopIB (Deinococcus radiodurans, UniProt Q9RWH8 1-346)
T1 sequence: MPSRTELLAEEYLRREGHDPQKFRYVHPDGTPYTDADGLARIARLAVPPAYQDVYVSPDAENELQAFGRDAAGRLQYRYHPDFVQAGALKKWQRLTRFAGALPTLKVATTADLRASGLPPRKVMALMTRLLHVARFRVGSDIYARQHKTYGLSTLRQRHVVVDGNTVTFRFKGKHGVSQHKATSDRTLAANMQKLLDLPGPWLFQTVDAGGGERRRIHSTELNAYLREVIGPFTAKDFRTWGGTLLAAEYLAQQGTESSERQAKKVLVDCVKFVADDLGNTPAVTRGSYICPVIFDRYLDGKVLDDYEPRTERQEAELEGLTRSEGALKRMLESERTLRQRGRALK
Assay: crystal structure

B1: 12-bp duplex (dsDNA)
DNA 1: GAATAAGGGCGC
DNA 2: GCGCCCTTATTC
  binding result: binds
